{"source": "patent WO2018084236A1", "about": "(dated 2018)", "binders": {"B1": {"name": "anti-prorenin receptor monoclonal antibody 8_6 (antibody, IgM, V domains shown)", "VH": "VQLVESGGGLVQPGRSLKLSCAASGFTFSNYYMAWVRHAPKKGLEWVATISTSGSRTYYPDSVKGRFTISRDNAKSSLYLQMNSLKSEDTATYYCARHEFGAFDYWGQGVTV", "VL": "DIVMTQSPSSLAVSAGETVTINCKSSQSLLYSGNQKNYLAWYQQKPGQSPKLLIYWASTRQSGVPDRFIGSGSGTDFTLTISSVQAEDLAIYYCQQYYDTPYTFGAGTK", "notes": "Rat hybridoma antibody, isotype IgM; Hybridoma culture liquid was tested in the BLI screen"}}, "target": "T1, peptide fragment of the human prorenin receptor protein, 200-213th polypeptide (SEQ ID NO: 37) (human)", "T1 construct": "For immunisation, KLH was linked to its amino terminus; also called peptide fragment of the prorenin receptor", "T1 peptide": "HKHLAKDHSPDLYS", "assay": "BLI (BLItz, Pall ForteBio), antibody in hybridoma culture liquid against the prorenin receptor peptide fragment", "data": [{"binder": "B1", "values": [{"measurement": "binding result", "result": "binds"}]}]}
